# Assay: label from the status in PepcDB records
row,Sequence,protein production
1,MTADGRGRIDAAFRGRLGRFVLDASLSVPATGVTAIFGPSGCGKTTIARCIAGLQRLSDGFCAIDGEIWQDGMAFRPAHRRPVGYVFQEPSLFPHLSVRGNLLYGAPKAAATSIGFDEVVELLGLTALLGRSPHRLSGGERQRVAIGRALLSQPRLLLMDEPLAALDRTTKNEILPFLERLHERLSLPVLYISHDMAEIERFADYLVLMERGRVVGAGPLHILQSDPALPLAYSRDAAVSIDGLVEAYDERYGLLTLAVNGGLLHVPSHRIAVGARQRLRIAASDVSIVRARPSESSILNILPARIVTQSPPGAGEVTIVLGLDSDGSGAPILSRISSRSRDLLGLSDGMAVFAQVKGVSLVRASGCAIGNMGPTAPGQLDHCSTQDTGVRSEAGTTAMPIDFAEIDPNRVAAILYRPQDDLDTLLADFAQDLVRAGERIGGIVQRNIKDGSGCQVGMQAIDLMTGREISICQPLGSGAMACKLDAAGLADASVAVASAIAQDVDLIVINKFSKQEAAGRGLRDELAGAIAAGIPVLTAVPEKCFEAWISFTGGIGTTLLCERQVIEAWWRDTSSRMKRMREDHDAVVAQCIEISGALPLVQRVVARQLVVTHDLPLDPERAEAEVVVRGVVERTNVEVLDGAADEADEAPDAGFPVGPERIERLPDIGPVPRRHEALQVEREVLSPDACLQRSAGERVDVFKEGKTKVGTVLVDRGDAELVEGPIVLELHEGAPVLVEMNVGVDLQTLYEIAVRGRVAGAERRCAIGLEAFAQRRPQRDVAFRIGGPKRDVFEPVKRFGTQPGIGKDRPVLCPAVRLDRRPLGDRSVLGPREPDAGAKGRKRQNDPEVAHIAPCQHRRTSPHLASARDALFGPREWISATYPPGNMTNAADRLLDV,failed
2,TEKTALHLRARRNFRDFRGVSRRTGEEWLVTVQDTEAHVPDVHEEVLGVVPITTLGPHNYCVILDPVGPDGKNQLGQKRVVKGEKSFFLQPGEQLEQGIQDVYVLSEQQGLLLRALQPLEEGEDEEKVSHQAGDHWLIRGPLEYVPSAKVEVVEERQAIPLDENEGIYVQDVKTGKVRAVIGSTYMLTQDEVLWEKELPPGVEELLNKGQDPLADRGEKDTAKSLQPLAPRNKTRVVSYRVPHNAAVQVYDYREKRARVVFGPELVSLGPEEQFTVLSLSAGRPKRPHARRALCLLLGPDFFTDVITIETADHARLQLQLAYNWHFEVNDRKDPQETAKLFSVPDFVGDACKAIASRVRGAVASVTFDDFHKNSARIIRTAVFGFETSEAKGPDGMALPRPRDQAVFPQNGLVVSSVDVQSVEPVDQRTRDALQRSVQLAIEITTNSQEAAAKHEAQRLEQEARGRLERQKILDQS,failed
3,MRKSVSRASSIITGLLVMSIGLNSTEYLSIYKLILFNKKTCMKLKTHFVFSIGLLTLASSFFGFSLIISAIISVLGNTLIDRLGHKEISTRYGKIPVRTPLTHTLPRSVFWGLISSMPVIIVLGLAYGMLNTKILTALIDGILVGPSHMLLDVFTENGIYVKRNGKWKRVALAHFSYDSSLINGLAIVLGIIMIFAAMELHH,failed
4,MYSRLPTTYELIEALQASPQAGPAAESRLATVLWAGFVLALVPMLVAGGALVWWHRVLAQVPPAWLPQVFHVLLAVCGVFYVGAWVIRLLDRRAALQHPLRWLTRRLDTQSEVENALLLRLGRIPALQLRARQRRVVLQARLWDASARTMALVLAIGPAAVILADGVAVMAPGGVPALVAIYGAVLVAGCALALFAQLQCSAPLRRLAHVLGEAAEINEAVNRQRQP,failed
5,MKHYEVEILDAKTREKLCFLDKVEPHATIAEIKNLFTKTHPQWYPARQSLRLDPKGKSLKDEDVLQKLPVGTTATLYFRDL,not failed
6,MLCCPDPRRRGQHNNRRRNAMPKLHESRIHDLRPTQLTVGMIEVQAKKTHLAAMAPADQQAFMQAHPIPAVLGPGGQLYITDHHHLGRAALDAGVITGYFMVEADLSQHSLDDFWKAMDQNLWVHPLDEHGVRHYYASIPKHLEKLVDDPYRSLAGYVRDAGGYDKTPTAFAEFVWADFFRRSIPIEDLLADFQAAVHAALPLAKSKFAKALPGYNGKLEHHHHHH,failed
7,MGSSHHHHHHSSGRENLYFQGMTKNTRFSPEVRQRAVRMVLESQGEYDSQWATICSIAPKIGCTPETLRVWGRQHERDTGGGDGGLTTAERQRLKEPERENRELRRSNDILRQASAYFAKAEFDRLWKK,not failed
8,MADRQLLHTAHIPVRWGDMDSYGHVNNTLYFQYLEEARVAWFETLGIDLEGAAEGPVVLQSLHTYLKPVVHPATVVVELYAGRLGTSSLVLEHRLHTLEDPQGTYGEGHCKLVWVRHAENRSTPVPDSIRAAIA,not failed
9,TDSTGIDLHEFLVNTLKKNPRDRMMLLKLEQEILEFINDNNNQFKKFPQMTSYHRMLLHRVAAYFGMDHNVDQTGKAVIINKTSNTRIPEQRFSEHIKDEKNTEFQQRFIL,not failed
10,MLKKMLKSYDYSLIFAIVLLCGFGLVMVYSSSMITAVSRYGVSSNFFFMRQLFALIAGGALFILMALFPYKALAHQKFQKGILLVSVLALISLFVFGHVAGNAQSWFKIGGMSIQPGEFVKLVVILYLAAVYAKKQSYIDHLLTGVAPPVVMTLIICGLIAMQPDFGTAMIIGLIATCMILCSGFSGKTLVRLVILGGIVFILVSPIIYLNQDKILTEGRLARFESLEDPFKYANSSGLQVINSYYAISSGGIFGLGLGESIQKYGYLPESHTDFIMAVIAEELGIFGVLFVIFLLGFVVIKGFYIARKCEDPFGSLLAIGISSMIAIQSFINLGGVSGLIPITGVTLPFISYGGSSLVLLLGSMGILANISMFVKYSENKKKKEPLAPKGMKKKQLKKTVYL,failed
11,MTSHTLTQGGRTTATIALLLAMLLWSSSFIAMKIALTGFDPMVMIFGRMAIASVIFIAVWRRNFSGVRYRAGDWKLLGFMTMCEPCLYFVFEAYALEYTSASQAGMIVAMMPLSVAVAARFVLKEHMARSAWAGFCLAIAGVVWLSLGGQVTENAPNPMLGNALEVCAMLTATGYVISAKRLSSTYPPLFITAVQSLAGFVFFLPVLALPGVTLPTSLPLTPTLAVLYLGVCITLGAYGLYNYGVSRLPAGQAASYINLIPVLTLIMGRVVLGDELSPSQYLASLLVLAGVVLSQRRAAA,failed
12,MSIEVIAVRLTKGMDLKLSLAKLVAEHDIKAGSIASCVGCISDLNLRLAGAESTLTKREPFEIVSVMGTLTPEHQHVHISVSDREGRVWGGHLLEGTVIDTTAELIIHSYSELEFTRAMDDSTGYTELQVNPSKLEHHHHHH,not failed
13,MKKVLPALLMGFVGLNASDRLLEIMRLYQKQGLEMVGQKLDSYLADKSFWAEELQNKDTDFGYYQNKQFLFVANKSKPSLEFYEIENNMLKKINSSKALVGSKKGDKTLEGDLATPIGVYRITQKLERLDQYYGVLAFVTNYPNLYDTLKKRTGHGIWVHGMPLNGDRNELNTKGCIAIENPLLSSYDKVLKGEKAFLITYEDKFFPSTKEELSMILSSLFQWKEAWARGDFERYMRFYNPNFTRYDGMKFNAFKEYKKRVFAKNEKKNIAFSSINVIPYPNSQNKRLFYVVFDQDYKAYQHNKLSYSSNSQKELYIEIENNQVSIIMEK,failed
14,MLKSILKVAVISTIGLSTVACTVNDQRIARYGVGGAAIGALAGTAIAGSTPEAALTGAAVGAIAGSVTGAAVNQQRQQRQRQQRQIVAPHPAMCTYRNRKGQVYSAPCAQKVQTPQLCTYRDGRGVMYQAPCPQRVR,failed
15,MLGNTLVGRYQIISHLGGGGFGETFVACDTHLPGLPKCVVKKLQPQANDPATLEIARRLFDTEAQVLYKLGSCDRIPQLLAYFEEDAEFYLVQEFIPGHDLSKELTPGKVFTQDEVTILLQEILTILEFVHQQNVIHRDINPRNLLRRQDGKLILIDFGAVKQITTQIVTPTGENKSTVIIGTPGYIPGEQAQGNPKFSSDIYAVGIVAIQALTGLLPHQLEHDADTHEIIWQNHAQVSSEFARFIDKMVCYDFRQRYAAATTALQALTELTQPASNTIAITPTLPPAKFRFNHTKKSIFIKLLLAILLTSATGIASVFVVNSINSNNATDLAKKGNTFFELQRYKDALSAYEQAVDIRPDYAPAWQGKGKTLFRLKQYQDALTAYDKAIQIQPDYVEAWSGRGFSLQNLQRYSEAIASFDKALQLNENYPEVWNARGEAFSNLKQYDQAIKSYDKAIEFNSDAYESFYNKGLALQSMKEYNEAINAYNKAIEIKSDYERAWYNLGNSLVNLNRYEDAFKAYDKAVQYKTDYAIAWLSRGNVLIILRRYPEALESFNQVIKFNPNNYQAWYGRGWSQHQNQRYAEAIESYKKAATIKPSNYEIWYSLGNSQYILQQYQEAIASYNKAVRYRPKHIESWYSRGNALFSLKQYKEAIASYEQAIKHKPDYSQAINARDEAQRQLQAATPKPVVIPVMPTPEFTNPPQDN,failed
16,MKRVALIHGWGGSFAATWEADGWSDALRAAGFDPVGVTIAGHGPEGGSHDPADYADLAGDLAAKLPAGLHGAIGFSLGTKLLLELEARSPGRNGRLVLGGIGDNLFAPEAAGPALVAALRGEATTPPPQVAALLAYAEKSASDPACLAAILERPANPVLTEDRLATAQAPILIFNSRDDAVAQPDTRLCRAMPHASHRLIEGPGHVALTSDARFREAAVEFLSK,failed
17,MGRKMGISGKLYSFLYLRGFKVWVSYRTQTVLTVLGWVLPVFTYYFTGTALGNRLVNEVGVSNYTAFFTIGLAFQGYVSSVISTISQRLRNEQLYGTIEYYVISRTGTFGFLLYSALWGLTLNTINAIIILAVGFALNIHYNVNIVSAIVIIVLLILSTLGIGMIAGAVTMVTKQGNPISFFFNTFTNLLGGTVFPVTVLPLYVRYISYGIPLTWALEGLREAFLNGAPITDIAPFIIILTIFDIVLLPLGVFSYNHAFKKAREKGTLGEY,failed
18,MMKAEELNKGFVNEIIEAGTPVPGEKEVASLKSCYQCGTCTGSCPSGRRTAYRTRKVIRQALLGIDSVLDSDDIWKCTTCYTCYERCPRDVKVTEIIKTIRNLAAKKGNMATPHKMTAVYVLKAGHAVPANDDTAKLRKSIGLAEKAPIAQFSQKDMDEIRTIAKNLKFDELIGFDWKTMGLKQ,failed
19,MQDLIKQYNTTLRQLREAQKDAKEEDVKVLTDMISDITYSLEWMKKARRPGNRRGVERLAAYQRERACDPLLMQRYFRSMDDNLYEWDNHQQEHSIGEWDKVRLEDALSLLTEREKEVYLMSRGYCLTYREIARYLDITCSTVQSMIERAEKKIARQVNESLFCNCG,failed
20,MGAVVVEPGSSSMVLGPEQVLDRASMHLANGLLGNPDSAAGLEVLLGGLKLRFVSGSAVAVTGAEGMVTLDGTELPLNKAVRVPPGAVLELGPAMFGIRYYLAVQGGISAQGEAAQGEAIRAGAALTFGRPNNHGSPEVNHPARRALDPERPVVARVSRGPQAQNDDAGTWLRLTSEPWILSPESDRAGARLVGRPLDVTSAPIPQAQPLVSGSVLLPSSGLPVIALAGHPDTSQSPVIAVVRDEDLDVLGQARPGQMVHLLG,failed
21,MSFEAFTELYIRDVKTRLKENTWLTKEHIIRTKILPYFGKLRISEISTKEIITWQNELLAYRDEKKKPYSQTYLKTLHNQLSAIFNHAVRYYELRSNPAAKVGNMGSE,failed
22,MQAKSEAKLAIGVIGCGNISMTYLRNAALFGGIELRACADISADMAALRAKEYGIQALGVDALLSDPEIDLVLNLTIPAAHFDISLSALSAGKHVFTEKPLATSAGDGRRLVAEAAKRGVLLGSAPDTFLGAAGRRARRLMDEGAIGRPVTGTAFMMGRGMEHWHPNPQFYYQPGGGPVFDMGPYYLTMLVNLLGPVARVMAMATRGQEERLITAEGPFKNTTFKVGTPTNVLSLLEFRSGATVTFGASWDVFKHSNHPIELHGTEGSLRLPDPDTFGGTVSLSERGADWKDFAGEGELYGARNWPYAAPDRANYRMLGVADLVRSLKTGAVPRASGNLALHVLEIMEAILHSGETKSAVAIAGDVVQPALLTEDEANSLLA,failed
